Molecular target: EGFP-Vinexin β (mouse)
Test: FRET or BRET; acceptor photobleaching FRET in stress granules of live COS-7 cells; EGFP donor, mCherry RFP acceptor

- FRET efficiency: 14.5%
Substance: RFP-CPEB4 (natural protein)
